The text below walks through data of paper PMC6771824, “Topology and enzymatic properties of a canonical Polycomb repressive complex 1 isoform” (Febs Letters, 2019).

The term Kd denotes the free concentration of one partner at which half of the binding sites on the other are occupied at equilibrium, for simple one-to-one binding. Read a low Kd as a tighter complex.

In one assay the target is T1, RING1B-PCGF2 heterodimer (human, UniProt Q99496 1-336; P35227 1-344).
T1 construct: RING1B, human, full length; the same chain as m1; PCGF2 (aka Mel18), human, full length; the same chain as m2; Pre-formed complex titrated as one molecule against UbcH5c; also called RING1B-PCGF2 subcomplex; source: Sf21 insect cells (MultiBac co-expression), purified (strep-tactin resin, two S200 SEC steps)
T1 sequence (looked up) 1: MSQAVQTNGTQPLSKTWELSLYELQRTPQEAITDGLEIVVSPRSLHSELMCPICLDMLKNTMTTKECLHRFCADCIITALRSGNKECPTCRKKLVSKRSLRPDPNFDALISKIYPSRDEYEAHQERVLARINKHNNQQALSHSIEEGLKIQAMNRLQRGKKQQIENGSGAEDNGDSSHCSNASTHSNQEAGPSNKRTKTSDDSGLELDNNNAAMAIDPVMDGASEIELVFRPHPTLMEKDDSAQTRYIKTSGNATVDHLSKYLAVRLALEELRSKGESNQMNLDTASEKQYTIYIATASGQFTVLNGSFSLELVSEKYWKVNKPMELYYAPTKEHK
T1 sequence (looked up) 2: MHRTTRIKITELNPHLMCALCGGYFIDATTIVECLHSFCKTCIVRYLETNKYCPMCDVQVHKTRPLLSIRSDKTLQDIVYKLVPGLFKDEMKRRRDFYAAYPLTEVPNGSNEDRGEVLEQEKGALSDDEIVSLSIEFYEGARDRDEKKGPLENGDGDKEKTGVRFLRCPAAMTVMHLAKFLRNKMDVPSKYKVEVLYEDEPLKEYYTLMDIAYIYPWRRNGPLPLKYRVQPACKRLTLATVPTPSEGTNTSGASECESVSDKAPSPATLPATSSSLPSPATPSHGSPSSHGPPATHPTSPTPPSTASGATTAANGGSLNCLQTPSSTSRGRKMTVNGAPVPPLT
In words: MST; UbcH5c labelled with NT-547 at 100 nM; RING1B (from 80 uM at 2x) or RING1B-PCGF2 (from 38 uM at 2x) in 16 serial dilutions; HEPES 50 mM pH 8, NaCl 75 mM, DTT 1 mM, Tween 0.05%; Monolith NT.115, LED 20%, MST power 40%. The following applies: both partners purified.

In the next assay the target is T2, RING1B (human, UniProt Q99496 1-336).
T2 construct: RING1B, human, catalytic E3 ligase subunit of PRC1; called full length in the discussion; primers run from the second codon to the stop codon; no cleavage of the tag is described; also called strep-tagged RING1B; catalytic subunit RING1B; source: Sf21 insect cells (MultiBac baculovirus), alone or co-expressed with other PRC1 subunits; in lysate and purified (strep-tactin resin, two S200 SEC …)
T2 sequence (looked up): T1 sequence (looked up) 1
The description is as above. The following applies: both partners purified.

B1: UbcH5c (enzyme)
chain: not shown
modifications: NT-547 fluorescent dye on Cys85
notes: UbcH5c, ubiquitin-conjugating E2 enzyme; also called UbcH5c E2 enzyme; E2 enzyme; source: E. coli Rosetta (DE3), purified (GST resin, 3C cleavage, Ni-NTA flow-through, S200 SEC)
For the molecule B1, the Kd with RING1B-PCGF2 heterodimer amounted to 4100 ± 1000 nM; in the assay with RING1B, 230 ± 80 nM.
